Measured values from patent publication US20210268105A1 (HEXAMER THERAPEUTICS, published 2021).
Where no end group is shown, it is not given here.

Molecular target: the molecule itself
Test: Blue native PAGE of the peptide dissolved in 1xPBS; self-association into a hexamer
Protocol: The peptide (SEQ ID NO: 15) was synthesized by SPPS and lyophilized for storage. The peptide was dissolved in 1×PBS and then loaded onto a blue native PAGE gel and size fractionated by electrophoresis through a 4-16% acrylamide gradient gel for 90 min at 150 V (constant). The gel was fixed in methanol:acetic acid:water and then rinsed in the same solution to destain. Lane 1 is BSA as a reference protein, and Lane 2 is the self-assembled hexamer. MW standards (which are not shown) are on the right. BSA is 66 kDa and the hexamer has an expected size of 20.7 kDa.
Experiments were performed to confirm that a hexamer forms following hydration of the monomer, elucidate the solubility of epitope coupled hexamers, determine the maximum density of epitope coupling, and confirm that a hexameric structure is maintained following coupling of the epitope. A representative peptide, SEQ ID NO: 15, was synthesized using the protocols previously described. A methionine and aspartic acid residue were placed on the N-terminus, and the methionine residue was protected by acetylation to form Acetyl-MD-(SEQ ID NO: 15). Following SPPS, the peptide was lyophilized for storage. To show self-assembly, the peptide was dissolved in 1×PBS buffer, incubated at room temperature for 5 min, and loaded onto a Blue NativePAGE Novex Bis-Tris Gel using the system purchased from Life Technologies. […]

B1: Acetyl-MD-(SEQ ID NO: 15) (peptide)
peptide: Ac-MDLRSIGKDLRSIGRDLRSIGKDLRSIGRD
notes: After it is dissolved in 1xPBS, six copies self-assemble into a hexamer (expected 20.7 kDa); also called self-assembled peptide
Does B1 bind?
Result: binds
